Measurements as given in article PMC6061780 (Nucleic Acids Research, 2018).

T1: Sc eIF4E (residues T25–L213), His6 tag removed (Saccharomyces cerevisiae, UniProt P07260 25-213)
T1 sequence (looked up): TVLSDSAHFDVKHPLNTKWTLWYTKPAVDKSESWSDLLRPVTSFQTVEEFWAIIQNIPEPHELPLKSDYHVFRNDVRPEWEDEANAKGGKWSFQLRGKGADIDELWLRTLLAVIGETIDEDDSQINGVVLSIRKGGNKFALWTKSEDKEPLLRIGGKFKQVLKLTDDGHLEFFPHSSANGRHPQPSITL

T2: Sc eIF4E Δ34 (residues V35–L213), His6 tag removed (Saccharomyces cerevisiae, UniProt P07260 35-213)
T2 sequence (looked up): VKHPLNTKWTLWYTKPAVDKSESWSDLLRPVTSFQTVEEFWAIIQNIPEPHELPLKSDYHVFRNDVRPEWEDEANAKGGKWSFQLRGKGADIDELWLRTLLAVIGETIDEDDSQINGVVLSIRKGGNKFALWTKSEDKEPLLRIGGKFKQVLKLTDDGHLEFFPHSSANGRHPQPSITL


Key:
Test in all cases: ITC
[1] = target: T1, Sc eIF4E (residues T25–L213), His6 tag …
[2] = target: T2, Sc eIF4E Δ34 (residues V35–L213), His6 …
[3] = target: Sc eIF4G (residues V448–N500; C+L+NC)-GB1 (Saccharomyces cerevisiae, UniProt P39935 448-500)

| Binder | Kd [1] [nM] | Kd [2] [nM] | Kd [3] [nM] |
| --- | --- | --- | --- |
| TDPITNYKPMDLQYKTYAYSMNELYHLKPSLA (domain or fragment, Saccharomyces cerevisiae, UniProt P36041 91-122, looked up) [Sc Eap1p (T91–A122; N_(short)+C)-GB1] | 12.9 ± 0.9 | 8.8 ± 0.5 | – |
| GPHMDLQYKTYAYSMNELYHLKPSLA (domain or fragment) [Sc Eap1p canonical motif (C)-GB1] | 3400 ± 300 | – | – |
| SASYEEDPLISELVRSLPKRKFWRLRMG (domain or fragment, Saccharomyces cerevisiae, UniProt P36041 123-150, looked up) [Sc Eap1p L+NC fragment (residues S123–G150)-GB1] | 1000 ± 100 | – | – |
| Sc eIF4E II-AA lateral surface mutant, His6 tag removed (ITC) (domain or fragment) GPHMTVLSDSAHFDVKHPLNTKWTLWYTKPAVDKSESWSDLLRPVTSFQTVEEFWAAIQNAPEPHELPLKSDYHVFRNDVRPEWEDEANAKGGKWSFQLRGKGADIDELWLRTLLAVIGETIDEDDSQINGVVLSIRKGGNKFALWTKSEDKEPLLRIGGKFKQVLKLTDDGHLEFFPHSSANGRHPQPSITL | – | – | 1020 ± 90 |
| KKTAMLNFSSLTDPITNYKPMDLQYKTYAYSMNELYHLKPSLA (domain or fragment, Saccharomyces cerevisiae, UniProt P36041 80-122, looked up) [Sc Eap1p (residues K80–A122; N+C peptide)-GB1] | 8 ± 4 | – | – |
